Assay results taken from US20210253718A1, “FRIZZLED5 PROTEIN-BINDING AGENTS” (Modmab Therapeutics Corporation, priority 2016, published 2021).

Assays:
FZD4 CRD = biological target: T1, FZD4 CRD (Homo sapiens, UniProt Q9ULV1); assay: Immunofluorescence of anti-FZD5 Fab binding to CHO cells overexpressing Frizzled CRD; set-up: key: −: no binding; +: very weak binder; ++: weak binder; +++: good binder; ++++: very good binder
T1 construct: E42-V167; GPI anchor signal (C); expressed in transfected cells; host or cells: CHO cells, lentiviral pLenti-puro
T1 sequence (Q9ULV1 42-167): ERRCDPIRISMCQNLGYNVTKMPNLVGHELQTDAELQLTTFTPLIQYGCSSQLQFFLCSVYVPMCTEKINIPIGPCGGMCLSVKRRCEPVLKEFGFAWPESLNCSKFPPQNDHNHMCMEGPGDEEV
Method in brief: (§1)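 CHO cell lines each displaying a myc-tagged Frizzled CRD on the plasma membrane via GPI anchor. Recombinant anti-FZD5 Fab binding detected by immunofluorescence and flow cytometry.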

FZD3 CRD = biological target: T2, FZD3 CRD (Homo sapiens, UniProt Q9NPG1); assay: as above; set-up: key: −: no binding; +: very weak binder; ++: weak binder; +++: good binder; ++++: very good binder
T2 construct: CRD of FZD1, FZD2, FZD3, FZD4, FZD5, FZD6, FZD7, FZD8, FZD9 or FZD10; GPI anchor signal (C); expressed in transfected cells; host or cells: CHO cells, lentiviral pLenti-puro
T2 sequence (Q9NPG1 23-136 limits assumed): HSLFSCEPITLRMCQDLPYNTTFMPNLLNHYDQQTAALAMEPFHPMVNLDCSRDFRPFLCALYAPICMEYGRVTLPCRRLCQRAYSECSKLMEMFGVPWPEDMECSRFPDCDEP
Method in brief: as §1

FZD7 CRD = biological target: T3, FZD7 CRD (Homo sapiens, UniProt O75084); assay: as above; set-up: key: −: no binding; +: very weak binder; ++: weak binder; +++: good binder; ++++: very good binder
T3 construct: D45-S169; GPI anchor signal (C); expressed in transfected cells; host or cells: CHO cells, lentiviral pLenti-puro
Method in brief: as §1

FZD5 CRD = biological target: T4, FZD5 CRD (Homo sapiens, UniProt Q13467); assay: as above; set-up: key: −: no binding; +: very weak binder; ++: weak binder; +++: good binder; ++++: very good binder
T4 construct: K29-T156; GPI anchor signal (C); expressed in transfected cells; host or cells: CHO cells, lentiviral pLenti-puro
T4 sequence (Q13467 29-156): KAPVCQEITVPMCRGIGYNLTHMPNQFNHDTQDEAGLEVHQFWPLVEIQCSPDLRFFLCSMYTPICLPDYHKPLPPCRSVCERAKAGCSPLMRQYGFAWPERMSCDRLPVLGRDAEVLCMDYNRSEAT
Method in brief: as §1

FZD1 CRD = biological target: T5, FZD1 CRD (Homo sapiens, UniProt Q9UP38); assay: as above; set-up: key: −: no binding; +: very weak binder; ++: weak binder; +++: good binder; ++++: very good binder
T5 construct: D112-P238; GPI anchor signal (C); expressed in transfected cells; host or cells: CHO cells, lentiviral pLenti-puro
Method in brief: as §1

[1] = test system: CHO cells not expressing Frizzled CRD; assay: Flow cytometry of anti-FZD5 Fab binding to CHO cells not expressing Frizzled CRD (background)
Description: (§2) The binding of anti-FZD5 Fabs to cell surface-expressed Frizzled protein was further determined for each member of the Frizzled family via flow cytometry and immunofluorescence analysis of a panel of 10 CHO cell lines, each ectopically over-expressing the extracellular cysteine-rich domain (CRD) of a different Frizzled protein family member.

FZD2 CRD = biological target: T6, FZD2 CRD (Homo sapiens, UniProt Q14332); assay: Flow cytometry of anti-FZD5 Fab binding to CHO cells overexpressing Frizzled CRD
T6 construct: D35-P161; GPI anchor signal (C); expressed in transfected cells; host or cells: CHO cells, lentiviral pLenti-puro
Method: Plasmids: pLCKO lentiviral vector used for knockout (TKO) library construction and expression of individual gRNAs was constructed as described previously (Hart et al., 2015). Briefly, single guide RNA (sgRNA) scaffold was amplified from px330 (Addgene 42230) and cloned into pLKO.TRC005 lentiviral vector (Broad Institute, Cambridge, Mass.) using AgeI/EcoRI restriction sites. BfuAI sites were added at the 5′ end of the sgRNA scaffold for cloning the TKO library or individual gRNA target sequences. Lenti Cas9-2A-BsdR vector used to generate Cas9 stable expression cell lines was constructed as described previously (Hart et al., 2015). Briefly, lentiCRISPR pXPR_001 (Addgene 49535) was modified through removal of the sgRNA scaffold region through NdeI/EcoRI digest and blunt ends generation using Large Klenow Fragment (NEB). 2A-puro was replaced with 2A-BsdR by PCR using the NheI/MluI sites. Each of the 10 human Frizzled cysteine rich domains (CRDs) were cloned into the lentiviral expression plasmid pLenti-puro in the following cassette: FZD_CRD-MYC-GPI.
Flow cytometry: Primary staining of cells was performed by treatment with 200 nM Frizzled profiler Fab. Alexa Fluor 488 AffiniPure F(ab′)2 was used as the secondary antibody (Jackson ImmunoResearch #109-546-097). c-Myc (9E10) IgG1 (primary antibody, Santa Cruz, lot #D0306) and Alexa Fluor 488 IgG (secondary antibody, Life technologies, lot #1458649) were used as controls. Dead cells were excluded by staining with Fixable Viability Dye eFluor 660 (eBioscience, catalogue number 65-0864). All reagents were used as per manufacturer's instructions. Flow cytometry was performed on a BD FACSCanto II flow cytometer (BD Biosciences), and data were analyzed with FlowJo software (FlowJo, LLC).
To confirm that the FZD5-WNT7B circuit is not driven simply by expression and rule out the possibility of a disconnect between RNA and protein levels for the Wnt receptors in HPAF-II cells, a panel of recombinant Fabs were generated, alternatively referred to herein as ‘Frizzled profiler’, that can detect and discriminate all but one of the ten Frizzled receptors. […] To characterize the binding specificity of these Fabs on cells, a panel of 10 CHO cell lines was generated, each expressing the CRD domain of a different myc-tagged Frizzled family member anchored at the plasma membrane through a GPI anchor (CHO-myc-FZDGPI). Despite the high sequence identity between Frizzled family members (FIG. 7A, FIG. 7B), selective Fabs were identified for FZD4, FZD5, FZD6 and FZD10 as assessed by immunofluorescence and flow cytometry (FIG. 7D and FIG. 8). […] The FZD8 CRD is most homologous to that of FZD5 (FIG. 7B). These Fabs can be used to discriminate expression of FZD1, FZD2, FZD4, FZD5, FZD6, FZD7, FZD8, FZD9 and FZD10 (FIG. 7D and FIG. 8). The ‘Frizzled profiler’ therefore consists of 10 different Fabs that can be used to discriminate expression of 9 different Frizzled family members. The Frizzled profiler was then used to confirm that HPAF-II cells express FZD1, FZD5, FZD6 and possibly FZD8 (FIG. 7E).
as §2

B1: Fab-2903: anti-FZD5 Fab with antibody variable region Fv-2903; CDR SEQ ID NOs: 35, 36, 42, 81, 118, 155 (antibody, V domains shown)
VH: EVQLVESGGGLVQPGGSLRLSCAASGFNLSYYYIHWVRQAPGKGLEWVASIYPYSSYTSYADSVKGRFTISADTSKNTAYLQMNSLRAEDTAVYYCARGAIDYWGQGTLVTVSS
VL: DIQMTQSPSSLSASVGDRVTITCRASQSVSSAVAWYQQKPGKAPKLLIYSASSLYSGVPSRFSGSRSGTDFTLTISSLQPEDFATYYCQQWGGGSSLFTFGQGTKVEIK
- Immunofluorescence binding, Frizzled CRD overexpressed on CHO cells: FZD4 (FZD4 CRD): −
- Immunofluorescence binding, Frizzled CRD overexpressed on CHO cells: FZD3 (FZD3 CRD): −
- Immunofluorescence binding, Frizzled CRD overexpressed on CHO cells: FZD7 (FZD7 CRD): ++
- Immunofluorescence binding, Frizzled CRD overexpressed on CHO cells: FZD5 (FZD5 CRD): ++++
- Immunofluorescence binding, Frizzled CRD overexpressed on CHO cells: FZD1 (FZD1 CRD): +
- Median fluorescence, Frizzled CRD overexpressed on CHO cells: None [1]: 4.07
- Median fluorescence, Frizzled CRD overexpressed on CHO cells: FZD2 (FZD2 CRD): 10.84

B2: Fab-2935: anti-FZD5 Fab with antibody variable region Fv-2935; CDR SEQ ID NOs: 35, 36, 74, 111, 150, 178 (antibody, V domains shown)
VH: EVQLVESGGGLVQPGGSLRLSCAASGFNIYYYYIHWVRQAPGKGLEWVASIYPSSGSTSYADSVKGRFTISADTSKNTAYLQMNSLRAEDTAVYYCARAAFDYWGQGTLVTVSS
VL: DIQMTQSPSSLSASVGDRVTITCRASQSVSSAVAWYQQKPGKAPKLLIYSASSLYSGVPSRFSGSRSGTDFTLTISSLQPEDFATYYCQQWYGGYALITFGQGTKVEIK
- Immunofluorescence binding, Frizzled CRD overexpressed on CHO cells: FZD4 (FZD4 CRD): −
- Immunofluorescence binding, Frizzled CRD overexpressed on CHO cells: FZD3 (FZD3 CRD): −
- Immunofluorescence binding, Frizzled CRD overexpressed on CHO cells: FZD7 (FZD7 CRD): −
- Immunofluorescence binding, Frizzled CRD overexpressed on CHO cells: FZD5 (FZD5 CRD): ++++
- Immunofluorescence binding, Frizzled CRD overexpressed on CHO cells: FZD1 (FZD1 CRD): −
- Median fluorescence, Frizzled CRD overexpressed on CHO cells: None [1]: 3.46

B3: Fab-2936: anti-FZD5 Fab with antibody variable region Fv-2936; CDR SEQ ID NOs: 35, 36, 75, 112, 151, 179 (antibody, V domains shown)
VH: EVQLVESGGGLVQPGGSLRLSCAASGFNISYYYMHWVRQAPGKGLEWVASIYSSSGSTSYADSVKGRFTISADTSKNTAYLQMNSLRAEDTAVYYCARAAMDYWGQGTLVTVSS
VL: DIQMTQSPSSLSASVGDRVTITCRASQSVSSAVAWYQQKPGKAPKLLIYSASSLYSGVPSRFSGSRSGTDFTLTISSLQPEDFATYYCQQWYAASLITFGQGTKVEIK
- Immunofluorescence binding, Frizzled CRD overexpressed on CHO cells: FZD4 (FZD4 CRD): −
- Immunofluorescence binding, Frizzled CRD overexpressed on CHO cells: FZD3 (FZD3 CRD): −
- Immunofluorescence binding, Frizzled CRD overexpressed on CHO cells: FZD7 (FZD7 CRD): −
- Immunofluorescence binding, Frizzled CRD overexpressed on CHO cells: FZD5 (FZD5 CRD): ++++
- Immunofluorescence binding, Frizzled CRD overexpressed on CHO cells: FZD1 (FZD1 CRD): −
- Median fluorescence, Frizzled CRD overexpressed on CHO cells: None [1]: 2.81

B4: Fab-2930: anti-FZD5 Fab with antibody variable region Fv-2930; CDR SEQ ID NOs: 35, 36, 69, 107, 145, 153 (antibody, V domains shown)
VH: EVQLVESGGGLVQPGGSLRLSCAASGFNLSYYYIHWVRQAPGKGLEWVASIYPYSGSTSYADSVKGRFTISADTSKNTAYLQMNSLRAEDTAVYYCARGALDYWGQGTLVTVSS
VL: DIQMTQSPSSLSASVGDRVTITCRASQSVSSAVAWYQQKPGKAPKLLIYSASSLYSGVPSRFSGSRSGTDFTLTISSLQPEDFATYYCQQWYGPYLITFGQGTKVEIK
- Immunofluorescence binding, Frizzled CRD overexpressed on CHO cells: FZD4 (FZD4 CRD): −
- Immunofluorescence binding, Frizzled CRD overexpressed on CHO cells: FZD3 (FZD3 CRD): −
- Immunofluorescence binding, Frizzled CRD overexpressed on CHO cells: FZD7 (FZD7 CRD): +
- Immunofluorescence binding, Frizzled CRD overexpressed on CHO cells: FZD5 (FZD5 CRD): ++++
- Immunofluorescence binding, Frizzled CRD overexpressed on CHO cells: FZD1 (FZD1 CRD): −
- Median fluorescence, Frizzled CRD overexpressed on CHO cells: None [1]: 4.66
- Median fluorescence, Frizzled CRD overexpressed on CHO cells: FZD2 (FZD2 CRD): 11.44

B5: Fab-2901: anti-FZD5 Fab with antibody variable region Fv-2901; CDR SEQ ID NOs: 35, 36, 40, 79, 116, 154 (antibody, V domains shown)
VH: EVQLVESGGGLVQPGGSLRLSCAASGFNISYSYMHWVRQAPGKGLEWVASIYSYSSYTYYADSVKGRFTISADTSKNTAYLQMNSLRAEDTAVYYCARSWYYWSPSSGMDYWGQGTLVTVSS
VL: DIQMTQSPSSLSASVGDRVTITCRASQSVSSAVAWYQQKPGKAPKLLIYSASSLYSGVPSRFSGSRSGTDFTLTISSLQPEDFATYYCQQGGFLITFGQGTKVEIK
- Immunofluorescence binding, Frizzled CRD overexpressed on CHO cells: FZD4 (FZD4 CRD): −
- Immunofluorescence binding, Frizzled CRD overexpressed on CHO cells: FZD3 (FZD3 CRD): −
- Immunofluorescence binding, Frizzled CRD overexpressed on CHO cells: FZD7 (FZD7 CRD): +
- Immunofluorescence binding, Frizzled CRD overexpressed on CHO cells: FZD5 (FZD5 CRD): ++++
- Median fluorescence, Frizzled CRD overexpressed on CHO cells: None [1]: 3.75
- Median fluorescence, Frizzled CRD overexpressed on CHO cells: FZD2 (FZD2 CRD): 13.95
